Measurements from patent publication US20200255494A1.

Target: anti-HA1H TCR expressed on SupT1 cells
Assay: cell-based or functional assay

Row | Substance | EC50 for HA1H peptide (pulsing concentration) in killing of SupT1 anti-HA1H TCR target cells, 48 h co-culture, 2:1 effector to target, flow cytometry
1 | MHC I CAR with β2m-41BBz: HLA-A02 / β2m-41BBz chimeric construct loaded with recombinant HA1H peptide, on transduced PBMC CAR-T cells (from UniProt P61769 21-119; P20963 31-51; Q07011 214-255; P20963 52-163) (peptide-MHC) | 0.1 µM
2 | MHC I CAR with β2m-CD3z: HLA-A02 / β2m-CD3z chimeric construct loaded with recombinant HA1H peptide, on transduced PBMC CAR-T cells (from UniProt P61769 21-119; P20963 31-51; P20963 52-163) (peptide-MHC) | 0.5 µM
